Measured values reported in patent EP4793287A1, “TUMOR MICROENVIRONMENT SPECIFICALLY ACTIVATED CD47 ANTIBODY” (Affinity (Shanghai) Biopharmaceutical Co., Ltd., priority 2023, dated 2025).

Assays:
[1] = target: T1, Recombinant human CD47 protein (Homo sapiens, UniProt Q08722); assay: ELISA detection of CD47 antibody; type: binding
T1 construct: purchased DIMA BIOTECH PME-100008
Protocol: Recombinant human CD47 protein (DIMA BIOTECH, Cat# PME-100008) was diluted with PBS to a concentration of 1 µg/ml, coated onto ELISA plates with 100 µl/well, and incubated overnight at 4 °C. On the following day, the plates were washed with 300 µl/well of PBST for three times. 300 µl/well of blocking solution (PBST containing 1% BSA (W/W)) was added, and the plates were blocked at 37 °C for 2 hours. After the blocking solution was discarded, the plates were washed with PBST for three times. 100 µl/well of antibody (5-fold gradient dilution, 8 dilution points) was added and incubated at 37 °C for 1 hour. The antibody solution was then discarded, and the plates were washed with PBST for three times. Goat anti-Human IgG Fc Highly Cross-Adsorbed Secondary Antibody, HRP (Invitrogen, Cat# A18829, 1:5000 dilution, 100 µl/well) was added and incubated at 37 °C for 0.5 hours, followed by three washes with PBST. 100 µl/well of TMB chromogenic substrate (solarbio, Cat# PR1200) was added and incubated at 37 °C for 5 minutes, after which 50 µl/well of ELISA stop solution (solarbio, Cat# C1058) was added. The OD450 was read using a microplate reader (ELx800 Absorbance Microplate Reader, BioTek). Data analysis and curve fitting were performed using software (GraphPad Prism 8).

human CD47 antigen = human CD47 antigen (Homo sapiens, UniProt Q08722); assay: Affinity measurement by SPR (BIAcore T200); conditions: 25 °C, 1:1 binding model
Chain of human CD47 antigen (Q08722 19-323): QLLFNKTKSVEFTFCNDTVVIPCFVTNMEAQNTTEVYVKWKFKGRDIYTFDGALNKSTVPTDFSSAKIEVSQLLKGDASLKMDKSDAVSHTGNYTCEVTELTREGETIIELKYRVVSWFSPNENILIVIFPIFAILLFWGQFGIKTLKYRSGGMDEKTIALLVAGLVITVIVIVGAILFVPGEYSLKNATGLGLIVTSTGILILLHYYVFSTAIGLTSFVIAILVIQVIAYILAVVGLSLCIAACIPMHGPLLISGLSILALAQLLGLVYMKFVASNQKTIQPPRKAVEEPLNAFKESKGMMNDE
Protocol: The binding affinity between the antigen and the antibody was measured using a BIAcore T200 instrument. The binding strength between the CD47 antigen and the antibody was determined using a CM5 chip (purchased from Cytiva, Cat# 29149603) via amine coupling. First, the CD47 antigen was immobilized onto the CM5 chip. According to the instructions of the Amine Coupling Kit (purchased from Cytiva, Cat# BR100050), using PBST as the running buffer, NHS and EDC were mixed and injected to activate the chip for approximately 420 seconds. The CD47 antigen was diluted to 10 µg/mL in 10 mM sodium acetate (pH 5.5) and injected to achieve an immobilization level of 141.2 RU. Finally, the remaining activated sites were blocked with 1 M ethanolamine (pH 8.5). Subsequently, the affinity of the antibody for the CD47 antigen was determined using the multi-cycle kinetics method. In each cycle, a single concentration of the antibody protein was injected, and the association and dissociation processes between the antibody and the antigen protein were recorded. Finally, the chip was regenerated with Glycine-HCl (pH 1.5). […] Data were analyzed according to a 1:1 binding model, and the kinetic parameters of antibody-antigen binding, including the association rate constant (Ka), dissociation rate constant (Kd), equilibrium dissociation constant (KD), and maximum binding signal (Rmax), were fitted.

[2] = tested on: Human red blood cells (RBCs); assay: FACS binding to red blood cells
Protocol: Human red blood cells (RBCs) (XFB-RBC, 10 ml) were centrifuged, and the supernatant was discarded. The cells were resuspended in FACS buffer (PBS + 2% FBS) and counted, and the cell density was adjusted to 2×10^6/ml. 100 µl/well of this suspension was added to a 96-well plate. After centrifugation and removal of the supernatant, the antibody to be tested (initial concentration of 100 nM, 5-fold gradient dilutions, 8 dilution points) was added at 100 µl/well, mixed with the cells, and incubated at 4 °C for 1 hour. Cells were washed by centrifugation with FACS buffer for three times, then added with 100 µl/well of Goat anti-Human IgG Fc Secondary Antibody, PE (eBioscience™, Invitrogen, Cat# 12-4998-82, 1:200 dilution) and incubated at 4 °C for 1 hour. After three washes with FACS buffer by centrifugation, the cells were resuspended in 200 µl/well of FACS buffer and analyzed using FACS (BECKMAN COULTER, CytoFLEX). Data were fitted and the results were analyzed using software (GraphPad Prism 8).

Raji cells = assay: ADCC assay with PBMCs, LDH detection; type: cell-based
Protocol: Raji cells (cultured in RPMI-1640 (ATCC Modification, Gibco, Cat# A10491-01) + 10% FBS (BI, Cat# 04-001-1A) + 1× P/S) were expanded to the logarithmic phase. Cells were collected and pipetted to create a single-cell suspension. After centrifugation, the supernatant was discarded, and the cells were resuspended in culture medium, counted, and the cell density was adjusted to 2×10^5/ml. 50 µl/well of this suspension was added to a 96-well cell culture plate (Corning, Cat# 3599) and incubated overnight at 37°C in a 5% CO2 atmosphere. PBMCs (XF, Cat# XC11100W) were resuspended in 10% FBS-RPMI1640 medium. After centrifugation, the supernatant was discarded, and the cell density was adjusted to 8×10^6/ml. 50 µl/well of the antibody to be tested and 50 µl of the PBMC suspension (E:T ratio of […]) were added to the culture plate. The plate was placed in a CO2 incubator and incubated for 24 hours. The ADCC assay was performed using an LDH detection kit (Cytotoxicity Detection KitPLUS (LDH), Roche, Cat# 4744934001).

[3] = In vivo hematological toxicity, blood cell counting; set-up: species or system hSIRPA/hCD47 (C57 background) mice; conditions: for PLT Count Mean / RBC Count Mean: 5mg/kg single intraperitoneal dose
Protocol: hSIRPA/hCD47 (C57 background) mice were randomly divided into 4 groups based on body weight, with 3 mice per group. The hematological toxicity of 70H1.IgG1.Y61C+20K and 70H1.IgG1.Y61C+40K was studied via intraperitoneal injection.
The experimental groups were divided as follows: • 70H1.IgG1.Y61C+20K (5 mg/kg) group, • 70H1.IgG1.Y61C+40K (10 mg/kg) group, • 70H1.IgG1.Y61C+40K (20 mg/kg) group, • 70H1.IgG1.Y61C+40K (30 mg/kg) group.
After grouping, a single dose of the corresponding antibody was administered intraperitoneally to the mice. Blood cell counting was performed on the mice at D0 (pre-dose), D2, D5, D7, D9, and D12.

T1 sequence (Q08722 19-323): as above

B1: CD47 TMEAbody: CD47 TMEAbody conjugated with PEG of approximately 20K molecular weight (i.e., PEG20K) (conjugate)
VH: QQQLEESGGGLVKPEGSLTLTCTASGFSFSSGYDMCWVRQAPGRGLEWIACIYTRSSGGTCYASWAKGRFTISKTSSTVDLRMTSLTAADTATYFCAGGRSSYRLNLWGQGALVTVSS
VL: DVVMTQTPSPVEAAVGGTVTIKCQASQSISNELSWYQQKPGQPPKLLIYRASTLESGVSSRFKGSGSGTEFTLTISDLECADAATYYCQSTFYGDYGNAFGGGTEVVVK
binding affinity weaker compared to 70H1 [1]: approximately 7 fold | recovery of binding affinity ([1]; legumain (asparaginyl endopeptidase, AEP)): recoverable by legumain | Ka (human CD47 antigen): 24400 M⁻¹ s⁻¹ | binding to red blood cells [2]: essentially no binding to red blood cells | EC50 (Raji cells; ADCC, E:T ratio of 20:1, 24 hours): 16.3 nM | ADCC activity (Raji cells; after the CD47 TMEAbody was activated): restored | ADCC activity (Raji cells; not activated, compared to the 70H1 antibody): lost its ADCC activity | PLT Count Mean ([3]; D0 (pre-dose)): 1668.33 10^9/L | RBC Count Mean ([3]; D0 (pre-dose)): 8.53 10^12/L | PLT Count Mean ([3]; D2): 1406.33 10^9/L | RBC Count Mean ([3]; D2): 6.56 10^12/L | PLT Count Mean ([3]; D5): 1142.33 10^9/L | RBC Count Mean ([3]; D5): 7.48 10^12/L | PLT Count Mean ([3]; D7): 1435.33 10^9/L | RBC Count Mean ([3]; D7): 9.62 10^12/L | PLT Count Mean ([3]; D9): 1356.00 10^9/L | RBC Count Mean ([3]; D9): 9.55 10^12/L | PLT Count Mean ([3]; D12): 1351.00 10^9/L | RBC Count Mean ([3]; D12): 9.45 10^12/L | change in red blood cells ([3]; 5 mg/kg, D2 post-administration): reversible decrease in red blood cells | change in platelets ([3]; 5 mg/kg, D5 post-administration): reversible decrease in platelets
